Literature values as cited in patent US20160354395A1, “INFANT FORMULAS CONTAINING A 2-FUCOSYLATED OLIGOSACCHARIDE FOR TREATMENT OR PREVENTION OF INFLUENZA INFECTION” (NESTEC S.A., priority 2013, published 2016).

Tested on: influenza virus
Conditions: mice

B1: Lactoferrin: a protein of the transferrin family, present in milk; given in the diet at 25 g/kg (protein, UniProt P24627 20-708, looked up)
Lactotransferrin: APRKNVRWCTISQPEWFKCRRWQWRMKKLGAPSITCVRRAFALECIRAIAEKKADAVTLDGGMVFEAGRDPYKLRPVAAEIYGTKESPQTHYYAVAVVKKGSNFQLDQLQGRKSCHTGLGRSAGWIIPMGILRPYLSWTESLEPLQGAVAKFFSASCVPCIDRQAYPNLCQLCKGEGENQCACSSREPYFGYSGAFKCLQDGAGDVAFVKETTVFENLPEKADRDQYELLCLNNSRAPVDAFKECHLAQVPSHAVVARSVDGKEDLIWKLLSKAQEKFGKNKSRSFQLFGSPPGQRDLLFKDSALGFLRIPSKVDSALYLGSRYLTTLKNLRETAEEVKARYTRVVWCAVGPEEQKKCQQWSQQSGQNVTCATASTTDDCIVLVLKGEADALNLDGGYIYTAGKCGLVPVLAENRKSSKHSSLDCVLRPTEGYLAVAVVKKANEGLTWNSLKDKKSCHTAVDRTAGWNIPMGLIVNQTGSCAFDEFFSQSCAPGADPKSRLCALCAGDDQGLDKCVPNSKEKYYGYTGAFRCLAEDVGDVAFVKNDTVWENTNGESTADWAKNLNREDFRLLCLDGTRKPVTEAQSCHLAVAPNHAVVSRSDRAAHVKQVLLHQQALFGKNGKNCPDKFCLFKSETKNLLFNDNTECLAKLGGRPTYEEYLGTEYVTAIANLKKCSTSPLLEACAFLTR
Day 6
  number of infiltrated leukocytes recovered from bronchoalveolar lavage fluid: significantly lower
Day 6 after infection, vs control mice given water
  lung consolidation score: significantly lower
